Results on one substance are retold here after patent publication US20170319643A1.

This experiment deals with elastase (porcine pancreas, Sigma Aldrich) (porcine) (UniProt P00772). The experiment can be described thus: cell-based or functional assay.
Chain of elastase (porcine pancreas, Sigma Aldrich) (porcine) (P00772 27-266): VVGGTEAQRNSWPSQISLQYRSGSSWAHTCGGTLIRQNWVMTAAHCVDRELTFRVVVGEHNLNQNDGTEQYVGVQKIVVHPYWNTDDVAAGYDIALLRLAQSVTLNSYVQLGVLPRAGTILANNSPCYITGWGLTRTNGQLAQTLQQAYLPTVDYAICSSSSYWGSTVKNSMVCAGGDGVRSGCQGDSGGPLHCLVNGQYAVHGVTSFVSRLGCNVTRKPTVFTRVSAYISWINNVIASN

Chain of alpha-1-antitrypsin enriched native human HDL (P01009 25-418): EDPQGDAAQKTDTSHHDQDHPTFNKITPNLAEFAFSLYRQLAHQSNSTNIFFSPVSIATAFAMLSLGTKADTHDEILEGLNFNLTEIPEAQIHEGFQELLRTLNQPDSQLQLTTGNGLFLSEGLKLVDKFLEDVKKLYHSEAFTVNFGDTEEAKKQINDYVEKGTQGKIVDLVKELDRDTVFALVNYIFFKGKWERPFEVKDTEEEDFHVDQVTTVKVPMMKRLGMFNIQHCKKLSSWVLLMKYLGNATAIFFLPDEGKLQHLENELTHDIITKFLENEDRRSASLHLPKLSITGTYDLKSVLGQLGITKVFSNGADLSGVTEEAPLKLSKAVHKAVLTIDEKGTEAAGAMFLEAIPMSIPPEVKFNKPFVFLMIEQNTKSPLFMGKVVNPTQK

As for “alpha-1-antitrypsin enriched native human HDL (from UniProt P01009 25-418)”, the elastase induced TNF-α production by J774 macrophages, change compared to PBS pretreatment is -97%.
